{"source": "patent US20150273042", "proteins": {"B1": {"name": "GBS sortase C1 of PI-2a lid mutant SrtC1Y86A (protein)", "chain": "ESNNQTQDFERAAKKLSQKEINRRMALAQAYNDSLNNVHLEDPAEKKRIQKGIAEYARMLEVSEKIGIISVPKIGQKLPIFAGSSQEVLSKGAGHLEGTSLPIGGNSTHTVITAHSGIPDKELFSNLKKLKKGDKFYIQNIKETIAYQVDQIKVVTPDNFSDLLVVPGHDYATLLTCTPIMVNTHRLLVRGHRIPYKGPIDEKLIKDGHLNTIYRYLFYISLVIIAWLLWLIKRQRQKNRLSSVRKGIES"}, "B2": {"name": "recombinant PI-2b SrtC1 (full-length, strain COH1) in fusion with a His-MBP-tag (protein)", "chain": "MAYPSLANYWNSFHQSRAIMDYQDRVTHMDENDYKKIINRAKEYNKQFKTSGMKWHMTSQERLDYNSQLAIDKTGNMGYISIPKINIKLPLYHGTSEKVLQTSIGHLEGSSLPIGGDSTHSILSGHRGLPSSRLFSDLDKLKVGDHWTVSILNETYTYQVDQIRTVKPDDLRDLQIVKGKDYQTLVTCTPYGVNTHRLLVRGHRVPNDNGNALVVAEAIQIEPIYIAPFIAIFLTLILLLISLEVTRRARQRKKILKQAMRKEENNDL"}, "B3": {"name": "recombinant PI-2b SrtC2 (full-length, strain COH1) in fusion with a His-MBP-tag (protein)", "chain": "MIRRYSANFLAILGIILVSSGIYWGWYNINQAHQADLTSQHIVKVLDKSITHQVKGSENGELPVKKLDKTDYLGTLDIPNLKLHLPVAANYSFEQLSKTPTRYYGSYLTNNMVICAHNFPYHFDALKNVDMGTDVYFTTTTGQIYHYKISNREIIEPTAIEKVYKTATSDNDWDLSLFTCTKAGVARVLVRCQLIDVKN"}, "B4": {"name": "PI-2b SrtC1 expressed from a complementation vector in GBS strain 515Δ2a (protein)", "chain": "B2 chain"}, "B5": {"name": "wild-type GBS sortase C1 of PI-2a, recombinant SrtC1 43-292 (protein)", "chain": "B1 chain with A44Y"}}, "key": {"[1]": {"biological_target": "T1, backbone protein PI-1 of GBS (GBS 80)", "T1 chain": "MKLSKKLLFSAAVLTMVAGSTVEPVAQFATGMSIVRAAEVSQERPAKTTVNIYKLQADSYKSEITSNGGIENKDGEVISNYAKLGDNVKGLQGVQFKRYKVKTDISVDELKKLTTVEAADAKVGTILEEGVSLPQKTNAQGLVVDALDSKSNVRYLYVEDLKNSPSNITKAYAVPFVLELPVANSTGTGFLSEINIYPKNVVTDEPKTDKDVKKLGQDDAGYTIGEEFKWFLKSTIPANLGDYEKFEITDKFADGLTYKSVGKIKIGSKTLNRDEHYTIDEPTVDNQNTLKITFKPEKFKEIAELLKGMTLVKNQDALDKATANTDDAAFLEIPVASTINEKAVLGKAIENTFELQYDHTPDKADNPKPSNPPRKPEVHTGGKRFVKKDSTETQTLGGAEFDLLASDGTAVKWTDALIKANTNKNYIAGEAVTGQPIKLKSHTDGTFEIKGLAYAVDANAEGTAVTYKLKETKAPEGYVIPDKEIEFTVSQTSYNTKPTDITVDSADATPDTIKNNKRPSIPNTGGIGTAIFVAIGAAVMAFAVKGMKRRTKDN"}, "[2]": {"biological_target": "T2, recombinant backbone protein of GBS pilus 2a (BP-2a, GBS59), strain 515, BP 30-649", "T2 chain": "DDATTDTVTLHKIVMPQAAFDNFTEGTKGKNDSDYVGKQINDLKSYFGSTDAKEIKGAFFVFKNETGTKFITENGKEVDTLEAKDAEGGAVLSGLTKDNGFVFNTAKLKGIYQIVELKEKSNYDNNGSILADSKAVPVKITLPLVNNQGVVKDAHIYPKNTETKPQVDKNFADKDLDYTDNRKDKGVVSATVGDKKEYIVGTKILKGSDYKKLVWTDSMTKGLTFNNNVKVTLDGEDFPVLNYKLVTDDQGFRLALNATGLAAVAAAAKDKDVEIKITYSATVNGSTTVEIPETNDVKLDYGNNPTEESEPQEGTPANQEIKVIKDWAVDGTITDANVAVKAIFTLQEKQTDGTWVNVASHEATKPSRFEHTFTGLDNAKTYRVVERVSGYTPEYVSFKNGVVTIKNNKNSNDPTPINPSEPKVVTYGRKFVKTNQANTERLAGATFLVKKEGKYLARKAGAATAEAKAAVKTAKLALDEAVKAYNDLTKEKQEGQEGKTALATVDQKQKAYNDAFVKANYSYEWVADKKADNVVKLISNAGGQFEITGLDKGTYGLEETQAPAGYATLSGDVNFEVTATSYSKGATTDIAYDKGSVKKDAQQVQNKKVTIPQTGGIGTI"}, "[3]": {"biological_target": "recombinant BP-2a (strain 515) with Lys189 replaced by alanine"}, "[4]": {"biological_target": "T3, recombinant BP-2a (strain 515) lacking the C-terminal IPQTG sorting signal, BP 30-640", "T3 chain": "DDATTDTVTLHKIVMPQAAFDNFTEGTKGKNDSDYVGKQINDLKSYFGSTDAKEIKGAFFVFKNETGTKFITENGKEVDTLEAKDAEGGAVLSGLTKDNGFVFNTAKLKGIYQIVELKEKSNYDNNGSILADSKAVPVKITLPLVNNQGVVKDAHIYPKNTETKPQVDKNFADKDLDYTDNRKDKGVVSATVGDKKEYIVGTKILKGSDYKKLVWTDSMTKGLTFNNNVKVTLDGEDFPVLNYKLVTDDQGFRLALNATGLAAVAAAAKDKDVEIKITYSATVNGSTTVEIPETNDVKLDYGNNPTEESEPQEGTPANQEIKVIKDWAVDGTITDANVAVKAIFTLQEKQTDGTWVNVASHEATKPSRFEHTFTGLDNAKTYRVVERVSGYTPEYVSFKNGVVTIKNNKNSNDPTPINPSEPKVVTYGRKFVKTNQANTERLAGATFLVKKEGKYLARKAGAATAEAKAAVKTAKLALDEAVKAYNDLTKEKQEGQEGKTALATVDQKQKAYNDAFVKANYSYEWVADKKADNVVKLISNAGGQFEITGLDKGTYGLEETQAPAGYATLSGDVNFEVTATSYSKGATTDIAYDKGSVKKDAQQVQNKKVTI"}, "[5]": {"biological_target": "recombinant ancillary protein 1 of GBS pilus 2a (AP1-2a)"}, "[6]": {"biological_target": "recombinant ancillary protein 2 of GBS pilus 2a (AP2-2a)"}, "[7]": {"biological_target": "GFP-… (EGFP from pSpeedET with … added at the C-terminus)"}, "[8]": {"biological_target": "pilus protein from Streptococcus pneumoniae (RrgB)"}, "[9]": {"biological_target": "synthetic fluorescent peptide carrying the LPXTG sorting motif of PI-1 backbone protein"}, "[10]": {"biological_target": "synthetic fluorescent peptide carrying the LPXTG sorting motif of PI-1 minor ancillary protein"}, "[11]": {"biological_target": "T4, backbone protein of GBS PI-2b (Spb1) expressed from a complementation vector in GBS strain 515Δ2a", "T4 chain": "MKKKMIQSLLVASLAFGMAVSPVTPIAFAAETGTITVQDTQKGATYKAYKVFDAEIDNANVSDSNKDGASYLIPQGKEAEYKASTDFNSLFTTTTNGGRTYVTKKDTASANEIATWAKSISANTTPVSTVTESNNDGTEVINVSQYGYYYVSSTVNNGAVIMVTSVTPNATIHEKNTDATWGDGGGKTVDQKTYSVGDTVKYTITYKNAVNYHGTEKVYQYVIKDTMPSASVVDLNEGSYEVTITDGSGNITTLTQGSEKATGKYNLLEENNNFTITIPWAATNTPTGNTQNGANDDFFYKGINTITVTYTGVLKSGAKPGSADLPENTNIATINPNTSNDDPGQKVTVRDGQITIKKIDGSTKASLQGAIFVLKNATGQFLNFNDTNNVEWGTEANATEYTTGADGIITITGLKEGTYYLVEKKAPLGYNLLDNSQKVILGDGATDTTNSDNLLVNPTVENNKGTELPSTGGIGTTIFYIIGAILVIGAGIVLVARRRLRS"}}, "note": "Numbering of substitutions follows the chain as printed."}
{"protein": "B1", "values": [{"measurement": "in vitro polymerization (SDS-PAGE)", "setting": "[1]", "result": "FIG. 7 shows that mutant sortase enzymes polymerize pilus proteins from a variety of gram positive bacteria"}, {"measurement": "in vitro polymerization (high-molecular-weight bands on SDS-PAGE)", "setting": "[2]", "result": "The typical pili pattern of bands with molecular weights above 260 kDa, visible by SDS-page, could be generated when monomeric r-BP was incubated with rSrtC1Y86A"}, {"measurement": "in vitro polymerization (HMW polymers on SDS-PAGE)", "setting": "[3]", "result": "HMW polymers could be observed"}, {"measurement": "in vitro polymerization (HMW polymers on SDS-PAGE)", "setting": "[4]", "result": "HMW polymers could not be detected"}, {"measurement": "in vitro polymerization (HMW structures on SDS-PAGE)", "setting": "[5]", "result": "some HMW structures were formed"}, {"measurement": "in vitro polymerization (HMW structures on SDS-PAGE)", "setting": "[6]", "result": "some HMW structures were formed"}, {"measurement": "in vitro polymerization reaction", "setting": "[7]", "result": "the SrtC1Y86A mutant was able to polymerise GFP-IPQTG"}, {"measurement": "in vitro polymerization (SDS-PAGE)", "setting": "[8]", "result": "FIG. 7 shows that mutant sortase enzymes polymerize pilus proteins from a variety of gram positive bacteria"}]}
{"protein": "B2", "values": [{"measurement": "FRET assay, cleavage of fluorescent peptide", "setting": "[9]", "result": "The PI-2b SrtC1 and SrtC2 enzymes are able to cleave the fluorescent peptides"}, {"measurement": "FRET assay, cleavage of fluorescent peptide", "setting": "[10]", "result": "The PI-2b SrtC1 and SrtC2 enzymes are able to cleave the fluorescent peptides"}]}
{"protein": "B3", "values": [{"measurement": "FRET assay, cleavage of fluorescent peptide", "setting": "[9]", "result": "The PI-2b SrtC1 and SrtC2 enzymes are able to cleave the fluorescent peptides"}, {"measurement": "FRET assay, cleavage of fluorescent peptide", "setting": "[10]", "result": "The PI-2b SrtC1 and SrtC2 enzymes are able to cleave the fluorescent peptides"}]}
{"protein": "B4", "values": [{"measurement": "pili polymerisation in complemented GBS 515Δ2a (western blot)", "setting": "[11]", "result": "transfection with BP and SrtC1 resulted in the formation of high molecular weight polymers"}]}
{"protein": "B5", "values": [{"measurement": "in vitro polymerization (high-molecular-weight bands on SDS-PAGE)", "setting": "[2]", "result": "showed no formation of high molecular weight bands that could represent pilus polymers"}]}
